According to patent publication CN109988240A (ANYUAN BIOTECHNOLOGY SHANGHAI CO LTD; PHARMAB SHANGHAI …, dated 2019):
Each block holds one binder with its values, some of them ahead of it.

Tests used:
人GPC-3-His(北京义翘神州生物) [1] = biological target: T1, 人GPC-3-His(北京义翘神州生物) (human, UniProt P51654 25-559); test: affinity and kinetics of Table 2 (table not shown; method not named here, taken as BLI of Example 3.2)
T1 construct: Bought His-tagged protein, coupled to Ni-NTA sensors in the BLI assay; not shown: His tag
T1 sequence (P51654 25-559 limits assumed): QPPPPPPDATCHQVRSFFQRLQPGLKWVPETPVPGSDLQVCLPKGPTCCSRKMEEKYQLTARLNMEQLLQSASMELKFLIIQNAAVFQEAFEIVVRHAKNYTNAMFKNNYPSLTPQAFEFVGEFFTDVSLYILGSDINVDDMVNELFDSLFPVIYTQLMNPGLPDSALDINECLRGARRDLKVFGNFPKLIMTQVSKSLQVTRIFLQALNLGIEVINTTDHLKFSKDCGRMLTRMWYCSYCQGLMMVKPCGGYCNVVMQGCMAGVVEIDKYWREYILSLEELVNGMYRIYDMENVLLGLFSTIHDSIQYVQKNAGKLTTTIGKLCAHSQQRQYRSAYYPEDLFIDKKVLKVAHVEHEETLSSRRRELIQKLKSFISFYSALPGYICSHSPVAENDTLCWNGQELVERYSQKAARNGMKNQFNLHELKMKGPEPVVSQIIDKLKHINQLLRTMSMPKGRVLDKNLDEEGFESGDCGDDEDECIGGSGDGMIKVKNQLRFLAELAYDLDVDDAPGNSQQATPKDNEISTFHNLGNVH

人GPC-3-His(北京义翘神州生物) [2] = biological target: T1, 人GPC-3-His(北京义翘神州生物); test: BLI (ForteBio Octet), human GPC-3-His on Ni-NTA sensor, antibody 3.125-100 nM
人GPC-3-His(北京义翘神州生物) [3] = biological target: T1, 人GPC-3-His(北京义翘神州生物); test: BLI (ForteBio Octet), human GPC-3-His on Ni-NTA sensor
[4] = biological target: T2, 人GPC-3抗原 (磷脂酰肌醇蛋白聚糖3, Glypican-3) (human, UniProt P51654 25-559, limits assumed); test: indirect ELISA, GPC-3 antigen coated at 0.2 μg/ml
T2 construct: The immunogen was bought from Sino Biological (北京义翘神州生物); also called GPC-3蛋白
T2 sequence (P51654 25-559 limits assumed): as above

[5] = biological target: T2, 人GPC-3抗原 (磷脂酰肌醇蛋白聚糖3, Glypican-3); test: competition ELISA on coated GPC-3 (0.1 μg/ml), competitor GPC-3 antibody-HRP
[6] = biological target: T2, 人GPC-3抗原 (磷脂酰肌醇蛋白聚糖3, Glypican-3); test: indirect ELISA on coated GPC-3, goat anti-human IgG-HRP detection

- Kd (人GPC-3-His(北京义翘神州生物) [1]): < 0.01 nM
B1: 人源化抗体AB13E3 (antibody, V domains shown)
VH: QVQLVQSGAEVKKPGASVKVSCKASGYTFTDYEMHWVKQAPGQGLEWIGAIDPQTGNTAFNQKFKGRVTLTRDKSSSTVYMELSSLRSEDTAVYYCTRFYSLTYWGQGTLVTVSS
VL: DVLMTQSPLSLPVTLGQPASISCRSSQSIVHSNGNTYLQWYLQRPGQSPKLLIYKVSNRFSGVPDRFSGSGSGTYFTLKISRVEAEDVGVYYCFQGSHFPYAFGGGTKVEIK
notes: Humanized from GPC3#4 by CDR grafting; detected with goat anti-human IgG

- Kd (人GPC-3-His(北京义翘神州生物) [2]): 0.00107 nM
- koff (人GPC-3-His(北京义翘神州生物) [2]): 1e-07 s⁻¹
- kon (人GPC-3-His(北京义翘神州生物) [2]): 624000 M⁻¹ s⁻¹
- Kd (人GPC-3-His(北京义翘神州生物) [3]): < 0.01 nM
- EC50 [4]: ~0.01 µg/mL
B2: 鼠单克隆抗体GPC3#4(杂交瘤细胞株DWX-1分泌) (antibody, V domains shown)
VH: QVQLQQSGAELVRPGAPVTLSCKASGYTFTDYEMHWVKQTPVNGLEWIGAIDPQTGNTAFNQKFKGKAILTADKSSSTAYMEVRSLTSEGSAVYYCTRFYSLTYWGQGTLVTVSA
VL: DVLMTQVPLSLPVSLGDQASISCRSSQSIVHSNGNTYLQWYLQKPGQSPKLLIYKVSNRFSGVPDRFSGSGSGTYFTLKISRVEAEDLGVYYCFQGSHFPYAFGGGTKLEIK
notes: Mouse antibody purified from hybridoma DWX-1; also called 鼠源抗体GPC3#4; 鼠单抗GPC3#4

- Kd (人GPC-3-His(北京义翘神州生物) [1]): < 0.01 nM
B3: 人源化抗体AB13E1 (antibody, V domains shown)
VH: QVQLVQSGAEVKKPGASVKVSCKASGYTFTDYEMHWVRQAPGQGLEWMGIIDPQTGNTSYAQKFQGRVTMTRDTSTSTVYMELSSLRSEDTAVYYCTRFYSLTYWGQGTLVTVSS
VL: DVVMTQSPLSLPVTLGQPASISCRSSQSIVHSNGNTYLNWFQQRPGQSPRRLIYKVSNRDSGVPDRFSGSGSGTDFTLKISRVEAEDVGVYYCFQGSHFPYAFGGGTKVEIK
notes: Humanized from GPC3#4 by CDR grafting

- EC50 [5]: 0.1 to 1 µg/mL
- Kd (人GPC-3-His(北京义翘神州生物) [1]): < 0.01 nM
- EC50 [6]: 0.001 to 0.01 µg/mL
B4: 人源化抗体AB13E4 (antibody, V domains shown)
VH: QVQLVQSGAEVVKPGASVKLSCKASGYTFTDYEMHWVKQTPGQGLEWIGAIDPQTGNTAFNQKFKGRATLTRDKSSSTAYMEVSSLRSEGTAVYYCTRFYSLTYWGQGTLVTVSS
VL: DVLMTQSPLSLPVTLGQPASISCRSSQSIVHSNGNTYLQWYLQKPGQSPKLLIYKVSNRFSGVPDRFSGSGSGTYFTLKISRVEAEDVGVYYCFQGSHFPYAFGGGTKLEIK
notes: Humanized from GPC3#4 by resurfacing; detected with goat anti-human IgG

- Kd (人GPC-3-His(北京义翘神州生物) [1]): < 0.01 nM
B5: 人源化抗体AB13E5 (antibody, V domains shown)
VH: QVQLVQSGAEVKKPGASVTLSCKASGYTFTDYEMHWVRQAPGQGLEWMGIIDPQTGNTSYAQKFQGRVTMTRDTSTSTVYMELSSLRSEGSAVYYCTRFYSLTYWGQGTLVTVSS
VL: DVVMTQSPLSLPVTLGDQASISCRSSQSIVHSNGNTYLNWFQQRPGQSPRRLIYKVSNRDSGVPDRFSGSGSGTDFTLKISRVEAEDVGVYYCFQGSHFPYAFGGGTKVEIK
notes: as for B3

- Kd (人GPC-3-His(北京义翘神州生物) [1]): < 0.01 nM
B6: 人源化抗体AB13E2 (antibody, V domains shown)
VH: QVQLVQSGAEVKKPGASVKVSCKASGYTFTDYEMHWVRQAPGQGLEWIGAIDPQTGNTSYAQKFQGRVTMTRDTSTSTVYMELSSLRSEDTAVYYCTRFYSLTYWGQGTLVTVSS
VL: DVVMTQSPLSLPVTLGQPASISCRSSQSIVHSNGNTYLNWFQQRPGQSPKLLIYKVSNRDSGVPDRFSGSGSGTDFTLKISRVEAEDVGVYYCFQGSHFPYAFGGGTKLEIK
notes: as for B3
